Reference: the supplement of paper PMC10567573

B1: KCNK9 (parent)
chain: DVPDLQSVCSCTCYRSQDYGGRSV

Variants of: B1
Assay: protein stability index of a GFP-peptide fusion (GPS, HEK-293T) (PSI 1-6); higher = more stable
Details: c terminus: a fixed tail appended
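Also: lentivirally expressed fusions sorted by FACS into six bins by GFP to DsRed ratio, PSI derived from sequencing read proportions per bin multiplied by bin number.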

Protein stability index: each site, then its substitutions
T12: C 1.21; I 1.57; D 2.79; N 1.62; Q 1.65; V 2.47; K 1.58; L 1.3; A 1.78; F 2.76; H 3.13; W 2.72; M 1.25; P 2.05; G 1.52; E 2.4; Y 1.94; S 1.31
S10: E 2.16; Y 1.92; Q 2.25; F 1.26; R 1.33; L 2.39; H 1.43; D 2.79; N 1.47; P 1.52; A 1.66; T 2.47; K 1.76
C13: P 2.81; A 2.28; S 2.79; E 2.85; Y 1.94; L 1.97; K 1.82; T 3; N 2.53; Q 2.69; D 2.12; V 2.31; I 2.85; R 2.19; F 1.14; W 1.75; G 3.14; M 1.73
V8: I 2; A 2.8; T 1.72; L 1.59; D 2.8; W 1.29; Q 2.42; E 2.24; N 2.5; K 1.68; H 1.57; Y 1.86; M 1.06; S 2.06; G 3.36; F 2.22; P 1.77; R 2.29
Q6: K 1.98; W 2.57; I 2.39; M 2.61; T 1.85; G 1.63; C 2.56; H 1.88; S 1.59; E 1.3; N 1.82; A 1.65; V 1.97; D 2.27; Y 4.08; R 2.73; P 1.5; L 3.01
R15: A 2.07; C 2.17
C11: W 2.59; I 2.39; R 2.34; N 3.21; T 2.81; F 2.06; L 2.52; H 2.02; Q 2.59; E 4.65; M 2.13; V 2.46; K 3.05; S 3.3; D 4.15; P 3.8; Y 3.6
C9: G 1.75; N 2.66; T 1.89; L 2.16; Y 1.82; V 2.18; M 2.06; P 1.67; D 3.26; F 2.01; H 1.71; I 2.38; S 3.05; K 2.29; Q 2.03; E 2.37; A 2.7
L5: N 2.19; Y 1.71; S 1.41; R 1.77; W 1.71; V 2.4; P 2.64; M 1.79; T 2.12; Q 2.38
Y14: A 1.91; N 2.23; H 2.55; F 2.1; V 2.38; W 3.24; P 2.71; R 2.37; L 1.47; C 1.75; G 2.42; I 1.83; K 2.27; D 1.92; S 2.29; M 3.61; T 1.5; Q 1.53
S7: A 1.64; D 2.2; T 2.03; K 1.96; M 1.84; C 1.66; Q 2.29; H 1.92; W 2.48; F 2.32; E 1.81; R 1.57; G 1.81; I 2.29; N 1.38; Y 2.07; P 1.46; V 1.56
